Test results taken from patent publication US6300103A, “Anti-microbial proteins” (Syngenta Participants AG, priority 1993, dated 2001).
Ends that are not written are not given here.

System: C. beticola
Assay: microtiter plate bioassay of inhibition of fungal growth (absorbance at 620 nm)
Type: cell-based
Conditions: spores of C. beticola in 96 well micro-titre plates, FIGS. 4, 7-8 (10 ug alone, 2 ug each in combination)
Procedure: The thus obtained IWF is fractionated by cation exchange chromatography on a 10 ml CM-Sepharose column (Pharmacia LKB) pre-equilibrated in starting buffer (20 mM HAc (pH 4.5)). The fractionation is performed at 4° C. at a flow rate of 25 ml/h. Fractions of 3 ml are collected. Proteins not bound to the column are removed by extensive washing of the column with starting buffer. Bound proteins are eluted by applying to the column further starting buffer comprising stepwise increased salt concentrations: viz, 0.1 M NaCg, 0.3 M NACl and 0.5 M NaCl. The absorbance at 280 nm of the eluate is measured, and fractions judged to comprise protein are tested for their anti-fungal activity against C. beticola using the microtiter plate bioassay described previously (PCT Patent Application No. PCT/DK92/00108, Publication No. WO 92/17591, now assigned to Sandoz LTD). […] The inhibition of fungal growth is measured in 96 well micro-titre plates at 620 nm, essentially as described in WO 92/17591. […] The proteins, either alone or in combination with WIN N (which is purified from barley grain or stressed barley leaf as described by Hejgaard et al (FEBS Letters, 307, 389-392 (1992)), and/or a protein having a sequence corresponding to at least one of those given in SEQ ID Nos. 4-6, are incubated with spores of C. beticola. The assay mix (240 ul) contains 100 ul of potato dextrose broth (Difco), 40 ul protein sample (or buffer control) in 100 mM Tris and 20 mM NaCl (pH 8.0) as well as approximately 400 spores in 100 ul water. The micro-titre plates are sealed with tape to avoid evaporation and contamination and subsequently incubated at room temperature on an agitator operated at 200 rpm. The absorbance at 620 nm is measured each day for 8 days and plotted for each concentration of protein vs time.

Molecule | anti-fungal activity (inhibition of fungal growth)
peaks 1 and 2: anti-microbial protein of 2.5-3 kDa (dimer about 5 kDa) from sugar beet, peaks 1 and 2 in FIG. 6 (SGECNMYGRCPPGYCCSKFGYCGVGRAYCG; cysteine pairing not given here; also: dimer about 5 kDa) | significant anti-fungal activity
peak 3.1: anti-microbial protein of about 7 kDa from sugar beet leaf intercellular washing fluid, peak 3.1 in FIG. 3 (protein) ITCGLVASKLAPCIGYLQGAPGPSAGCCGGIKGLNSAAASPADRKTACTCLKSAATSIKGINYGKAASLPRQCGVSVPYAISPNTNCNAIH | significant anti-fungal activity
peak 3.2: anti-microbial protein of about 7 kDa from sugar beet leaf intercellular washing fluid, peak 3.2 in FIG. 3 (protein) ITCGLVASKLAPCIGYLQGAPGPSAGCCGGIKGLNSAAASPADRKTACTCLKSAATSMKGINYGKAASLPRQCGVSIPYAISPNTNCNAIH | significant anti-fungal activity
